Read-outs that look alike come from different tables or passages of the source. Square brackets hold non-standard residues; d marks the D form. Ends that are not written are not given here.
Tests used:
[1] = target: binding of NMDAR 2B to PSD95 (Homo sapiens, UniProt P78352); conditions: reported by Bach; cited from earlier work
[2] = system: embolic stroke; assay: Primate model of ischemic stroke (twenty 100-micron polystyrene spheres into an intracerebral vessel; MRI brain analysis); format: in vivo, macaques; conditions: 2.6 mg/kg one hour after spheres
Method: The following example was performed on ten macaques divided into five test subjects and five controls. Each animal was put through the protocol twice with test animals in the first round serving as controls in the second round and vice versa.
Twenty 100-micron polystyrene spheres were delivered into an intracerebral vessel of each animal to induce embolic stroke. One hour after introducing the sphere, the animals were treated with Tat-NR2B9c (2.6 mg/kg) or vehicle control. The animals were then subject to MRI brain analysis and neurological examination at 4 hr, 24 hr and 14 days after introduction of the spheres.
After 14-28 days, the procedure was repeated with test animals serving as controls and vice versa.

[3] = Method: For use such a composition is thawed and diluted into a larger volume of normal saline for infusion into a blood vessel. Another composition can be made by lyophilizing the chimeric agent Tat-NR2B9c at a concentration of 1-50 mg/ml in normal saline in the presence or absence of excipients. Such excipients can include those to increase stability or inhibit bacterial, viral or other pathogen growth that could degrade the drug. […] The lyophilized composition can be reconstituted in normal saline.
[4] = system: permanent pial vessel occlusion (P3VO) stroke; assay: Rat model of stroke, permanent pial vessel occlusion of 3 terminal branches of the Middle Cerebral Artery (P3VO); format: in vivo, Sprague Dawley rats; conditions: 7.6 mg/kg i.v. after vessel occlusion, 5 min infusion
Method: Different infusion times were also compared for efficacy in a rat model of stroke in which adult Sprague Dawley rats (10-12 weeks old) (males˜300 g, females˜250 g) were fasted for 12-18 hours before being subjected to permanent pial vessel occlusion of 3 terminal branches of the Middle Cerebral Artery over the Whisker Barrel Cortex (P3VO). The protocol for analysis of this rat model has been described in WO/2008/008348. Tat-NR2B9c was administered at 7.6 mg/kg i.v. after vessel occlusion in comparison with vehicle. Two periods of infusion were compared, 5 min and 1 hour.

[5] = high dose groups, dogs
[6] = 50 mg/kg
Method: Tat-NR2B9c was administered to rats at 50 mg/kg and infusion times of 3 min or 60 min.

[7] = for subjects with histamine levels greater than 10 nmol/L: 3.75 mg/kg dose group; for maximum histamine level / average histamine level: 3.75 mg/kg; for average histamine level: subjects with levels greater than 10 nmol/L
Method: We carried out a Safety, Tolerability and Pharmacokinetic Study of Tat-NR2B9c in humans. Subjects were either normal, healthy, non-smoking males or post-menopausal or surgically sterile female subjects with a minimum age of 18 years. The subjects were either administered Tat-NR2B9c, Lot #: 124-134-001B, or were given placebo (Phosphate Buffered Saline), Lot #: 124-134-001A, administered as an intravenous infusion (10±1 minutes). Four subjects were dosed in each of Cohorts 1 to 3, and 10 subjects were dosed in each of Cohorts 4 to 8.
During the study period, 11 blood samples were collected for pharmacokinetic analysis from each subject at the following timepoints: 0.00 (pre-dose), 0.08 (5 minutes), 0.17 to 0.25 (10 to 15 minutes, precisely at the end of each individual drug infusion), 0.33 (20 minutes), 0.50, 0.75, 1.00, 2.00, 6.00, 12.00, and 24.00 hours post-dose. In addition, 8 blood samples were collected for histamine analysis from each subject at the following timepoints: 0.00 (pre-dose), and at 0.08 (5 minutes), 0.17 (10 minutes), 0.25, 0.50, 1.00, 2.00, and 24.00 hours post-dose.
The safety assessment was performed on all subjects who received at least 1 dose during the course of the study. The incidents of all adverse events (AEs) were tabulated by treatment and subject number. Absolute values for vital signs, electrocardiogram (ECG) parameters, laboratory parameters and physical examinations were also documented and values outside the normal range were flagged. Shifts from baseline values were tabulated. AEs were documented using investigator and Medical Dictionary for Regulatory Activities (MedDRA) terms.

[8] = high dose groups, primates
[9] = high dose groups, rats
[10] = system: cerebral ischemia; conditions: reported in WO 2008/014917; cited from earlier work
[11] = cortex compared with whole brain

Sequence of binding of NMDAR 2B to PSD95 (P78352 61-249 limits assumed): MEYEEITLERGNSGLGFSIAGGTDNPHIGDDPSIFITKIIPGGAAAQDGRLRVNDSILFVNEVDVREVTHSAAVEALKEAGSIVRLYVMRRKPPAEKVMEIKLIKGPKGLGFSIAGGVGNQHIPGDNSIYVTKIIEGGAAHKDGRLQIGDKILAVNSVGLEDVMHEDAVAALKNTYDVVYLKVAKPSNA

## IESDV (synthetic pentamer peptide from the C-terminus of NMDAR 2B) [pentamer peptide from the C-terminus of NMDAR 2B, reported by Bach]
[1]
  inhibiting binding of NMDAR 2B to PSD95: effective

## YGRKKRRQRRRKLSSIESDV [Tat-NR2B9c]
[2]; [11]
  reduction of number of infarctions in the cortex: even greater
  reduction of volumes of infarctions in the cortex: even greater
[2]; vs vehicle control
  number of MRI-visible infarctions in the whole brain: significantly reduced
  volume of MRI-visible infarctions in the whole brain: significantly reduced
[3]; lyophilized from 1-50 mg/ml in normal saline, −20° C. or room temperature
  stability of lyophilized composition: stable
[3]; normal saline, 10-30 mg/ml, stored frozen, two or more years
  stability (degradation or aggregation of the peptide) when stored frozen: stable
[4]
  infarction size 24 hr post treatment relative to saline placebo: significantly reduced
[5]
  histamine levels: elevated histamine levels were observed
[6]; infusion over 3 min
  decrease in blood pressure: about 50%
  period of recovery of blood pressure: 90 min
[6]; infusion over an hour (60 min)
  recovery of blood pressure: recovered over a period of hour
  reduction in blood pressure: only a slight reduction
[7]; 0.375 mg/kg dose group, 1 timepoint, 2.00 hours post dose
  subjects with an elevated histamine level: 1 subject
[7]; 10 minutes after start of administration
  subjects with histamine levels greater than 10 nmol/L: 7 of the 8
[7]; 10 minutes after start of administration, listed as NA 1
  subjects with histamine levels greater than 10 nmol/L: Seven of 8
[7]; 15 minutes after start of administration
  subjects with histamine levels greater than 10 nmol/L: 3 subjects
[7]; 10 minutes after start
  maximum histamine level: 39.8 nmol/L
  average histamine level: 24.3 nmol/L
[7]; 15 minutes after start
  maximum histamine level: 20.3 nmol/L
  average histamine level: 15.3 nmol/L
[7]; 9/46 subjects receiving drug
  AE dry mouth, incidence: 19.6%
[7]; 10/46 subjects receiving drug
  AE flushing, incidence: 21.7%
[7]; 12/46 subjects receiving drug
  AE pruritis, incidence: 26.1%
[7]; 13/46 subjects receiving drug
  AE feeling hot, incidence: 28.3%
[7]; 34 of 46 active treatment subjects, all doses
  active treatment subjects who experienced at least 1 AE: 73.9%
[7]; after drug administration
  time for abnormal histamine results to return to the normal range: ≤ 24.00 h
[7]; all dose groups
  Serious Adverse Events (SAEs): No Serious Adverse Events (SAEs) were reported
[7]; doses ≧2.60 mg/kg
  AEs at doses ≧2.60 mg/kg (decreased blood pressure, paraesthesia, hypoaesthesia, erythema, rash, pruritus, dry mouth, nausea, feeling hot, flushing): several AEs were frequently reported
[7]; treatment groups other than 3.75 mg/kg
  abnormal levels of histamine: no treatment group had significant abnormal levels of histamine
[8]
  histamine levels: elevated histamine levels were observed
[9]
  histamine levels: elevated histamine levels were observed

## vdseisslk-rrrqrrkkrgyin ([dV][dD][dS][dE][dI][dS][dS][dL][dK][dR][dR][dR][dQ][dR][dR][dK][dK][dR]G[dY][dI][dN]; also: retro-inverso) [retro-inverso analog of Tat-NR2B9c, retro-inverso analog of Tat-NR2B9c described in WO 2008/014917]
[10]
  inhibiting cerebral ischemia: effective
